First the molecules themselves.
B1: CPEB3 Ribozyme (parent)
chain: GGGGGCCACAGCAGAAGCGUUCACGUCGCGGCCCCUGUCAGAUUCUGGUGAAUCUGCGAAUUCUGCUGU

The series covers variants of B1. In words: self-cleavage, relative activity (ratio to wild type); higher = more cleavage; co-transcriptional.
As for GGGGGCCACAGCAGAAGCGUUCACGUCGCGGCCUCUGUCAGAUUCUGGUGACUCUGCGAAUUCUGCUGU, the self-cleavage is 0.958.

GGGGGCCACAGCAGAAGCGUUCACGUCGCGGCCUCUGUCAGAUUCUGGUGAUUCUGCGAAUUCUGCUGU: the self-cleavage stood at 0.975. The value for GGGGGCCACAGCAGAAGCGUUCACGUCGCGGCCUCUGUCAGAUUCUGGUGAAUGUGCGAAUUCUGCUGU was 0.819; that for GGGGGCCACAGCAGAAGCGUUCACGUCGCGGCCUCUGUCAGAUUCUGGUGAAUAUGCGAAUUCUGCUGU was 0.809; that for GGGGGCCACAGCAGAAGCGUUCACGUCGCGGCCUCUGUCAGAUUCUGGUGAAUUUGCGAAUUCUGCUGU was 0.985. The value for GGGGGCCACAGCAGAAGCGUUCACGUCGCGGCCGCUGUCAGAUUCUGGUGAAUCUGCGAAUUCUGCCGU was 0.766; that for GGGGGCCACAGCAGAAGCGUUCACGUCGCGGCCGCUGUCAGAUUCUGGUGAAUCUGCGAAUUCUGCGGU was 0.894. The value for GGGGGCCACAGCAGAAGCGUUCACGUCGCGGCCGCUGUCAGAUCCUGGUGAAUCUGCGAAUUCUGCUGU was 0.578; that for GGGGGCCACAGCAGAAGCGUUCACGUCGCGGCCGCUGUCAGAUGCUGGUGAAUCUGCGAAUUCUGCUGU was 0.446. As for GGGGGCCACAGCAGAAGCGUUCACGUCGCGGCCGCUGUCAGAUUCUGGUGAAUCUGCGAAUUCUUCUGU, the self-cleavage was found to be 0.325.

Turning to GGGGGCCACAGCAGAAGCGUUCACGUCGCGGCCGCUGUCAGAUUCUGGUGAAUCUGCGAAUUCUCCUGU, the self-cleavage came out at 0.331.

For the variant GGGGGCCACAGCAGAAGCGUUCACGUCGCGGCCGCUGUCAGAUUCUGGUGAAUCUGCGAAUUCUGCUGC, the self-cleavage came out at 0.971. Next, GGGGGCCACAGCAGAAGCGUUCACGUCGCGGCCGCUGUCAGAUUCUGGUGAAUCUGCGAAUUCUGCUGA: 0.886; GGGGGCCACAGCAGAAGCGUUCACGUCGCGGCCUCUGUCAGAUUCUGGUGAAUCUGUGAAUUCUGCUGU: 0.385; GGGGGCCACAGCAGAAGCGUUCACGUCGCGGCCUCUGUCAGAUUCUGGUGAAUCUGAGAAUUCUGCUGU: 0.315.

With GGGGGCCACAGCAGAAGCGUUCACGUCGCGGCCGCUGUCAGAUUCUGGUGAAUCUGCGAACUCUGCUGU, the self-cleavage turned out to be 0.423. Consider GGGGGCCACAGCAGAAGCGUUCACGUCGCGGCCGCUGUCAGAUUCUGGUGAACCUGCGAAUUCUGCUGU, for which the self-cleavage is 0.562.

GGGGGCCACAGCAGAAGCGUUCACGUCGCGGCCGCUGUCAGAUUCUGGUGAAGCUGCGAAUUCUGCUGU: the self-cleavage is 0.27.

As for GGGGGCCACAGCAGAAGCGUUCACGUCGCGGCCGCUGUCAGAUUCUGCUGAAUCUGCGAAUUCUGCUGU, the self-cleavage was found to be 0.722. In the case of GGGGGCCACAGCAGAAGCGUUCACGUCGCGGCCGCUGUCAGAUUCUGAUGAAUCUGCGAAUUCUGCUGU, the self-cleavage was 0.765. Next, GGGGGCCACAGCAGAAGCGUUCACGUCGCGGCCGCUGUCAGAUUCUGUUGAAUCUGCGAAUUCUGCUGU: 0.753; GGGGGCCACAGCAGAAGCGUUCACGUCGCGGCCUCUGUCCGAUUCUGGUGAAUCUGCGAAUUCUGCUGU: 0.602; GGGGGCCACAGCAGAAGCGUUCACGUCGCGGCCUCUGUCGGAUUCUGGUGAAUCUGCGAAUUCUGCUGU: 0.963.

As for GGGGGCCACAGCAGAAGCGUUCACGUCGCGGCCUCUGUCUGAUUCUGGUGAAUCUGCGAAUUCUGCUGU, the self-cleavage is 0.838. Consider GGGGGCCACAGCAGAAGCGUUCACGUCGCGGCCGCCGUCAGAUUCUGGUGAAUCUGCGAAUUCUGCUGU, for which the self-cleavage is 0.819.

Consider GGGGGCCACAGCAGAAGCGUUCACGUCGCGGCCGCGGUCAGAUUCUGGUGAAUCUGCGAAUUCUGCUGU, for which the self-cleavage is 0.263.

As to GGGGGCCACAGCAGAAGCGUUCACGUCGCGGCCGCUGUCAGAUUCUCGUGAAUCUGCGAAUUCUGCUGU, the self-cleavage is 0.724. Next, GGGGGCCACAGCAGAAGCGUUCACGUCGCGGCCGCUGUCAGAUUCUUGUGAAUCUGCGAAUUCUGCUGU: 0.605. In the case of GGGGGCCACAGCAGAAGCGUUCACGUCGCGGCCGCUGUCAGAUUCUAGUGAAUCUGCGAAUUCUGCUGU, the self-cleavage came to 0.769. The value for GGGGGCCACAGCAGAAGCGUUCACGUCGCGGCCGCUGUCAGAUUCUGGUGAAUCUUCGAAUUCUGCUGU was 0.538. Next, GGGGGCCACAGCAGAAGCGUUCACGUCGCGGCCGCUGUCAGAUUCUGGUGAAUCUACGAAUUCUGCUGU: 0.579; GGGGGCCACAGCAGAAGCGUUCACGUCGCGGCCGCUGUCAGAUUCGGGUGAAUCUGCGAAUUCUGCUGU: 0.766; GGGGGCCACAGCAGAAGCGUUCACGUCGCGGCCGCUGUCAGAUUCAGGUGAAUCUGCGAAUUCUGCUGU: 0.776. Regarding GGGGGCCACAGCAGAAGCGUUCACGUCGCGGCCGCUGUCAGAUUCUGGUGAAUCUGCGAAUGCUGCUGU, the self-cleavage stood at 0.477. On to GGGGGCCACAGCAGAAGCGUUCACGUCGCGGCCGCUGUCAGAUUCUGGUGAAUCUGCGAAUCCUGCUGU, for which the self-cleavage came to 0.316. For the variant GGGGGCCACAGCAGAAGCGUUCACGUCGCGGCCGCUGUCAGAUUCUGGUGAAUCUGCGAAUACUGCUGU, the self-cleavage was 0.453.

GGGGGCCACAGCAGAAGCGUUCACGUCGCGGCCUGUGUCAGAUUCUGGUGAAUCUGCGAAUUCUGCUGU: the self-cleavage came to 0.313. Next, GGGGGCCACAGCAGAAGCGUUCACGUCGCGGCCUUUGUCAGAUUCUGGUGAAUCUGCGAAUUCUGCUGU: 0.736; GGGGGCCACAGCAGAAGCGUUCACGUCGCGGCCUAUGUCAGAUUCUGGUGAAUCUGCGAAUUCUGCUGU: 0.194.

The values are drawn from the RNAGym collection of RNA variant scans (doi:10.7554/elife.80360).
